Reference: the DeepSol protein solubility set

Assay: soluble on expression in E. coli; label from the status in PepcDB or PDB records

Row | Sequence | soluble on expression in E. coli
1 | MGSDKIHHHHHHMSELNAQQVVDYLQHHPDFLIQHPELLAQLELQQQAQGATSLVHIQQRQLREHNTLLKNQIASMNKYAAQNEQVYRLFSLCHQQLCSNNDFDALASNLQDIICSNPDISDCRLVKYDTKYAQLVEHRLSNSGHYLGRINQQERDLLFSDTAQSTAIYLIGDINKPIAILAFASNNANHFEPAQDTLFVLDFVVALQSRLLELA | not soluble
2 | MSGTNRVAANLNMLFTNLPLLQRYGAAASAGFKLVEVSIPYTEPAEKLREAADEYHLKHTLINAPPGNWDDGFRGLASLKSAKKEFRKSLDTAIEYAKALGCCRVHVMAGIPKSDDDLENAHQTYSENVRFAAEKFKEHKLICLIEPINKYTIPGYHLNNYEDAMDVIQMDQSNNLKIQYDTFHAQQINGQIGAIMRKLKDYIGYIQVAQVPNRGACDTRGEIDYHFIFDEIRSINPSWVIGAEYLDAKPSFNWIENMSLSF | not soluble
3 | MSIYEYFVKLHRYLLWQTKKIRALERRLHALEARLREMEAQPRTSIERIEYKFDQLKVETLEGTLNIGIAPPGAGGTIEDFAVEPVKTVIPKPEPVLMRPIQEKVAAYLNGEASETLKRLEQQYGRRLDDTYRQFILQDIARQTDERIRFYLQEKANHGYVPSGDRDEAVENEIFQKVKADIEQSLDAFLKHLPSKEGST | not soluble
4 | MGSDKIHHHHHHEVDLYKGGSLREPAYLYPFDQENKNVTAEITIKTNSTINLELLDVYFAPLKYNKHLLIMLTQDDCKPSIYPRTWASINGKPLSGQYYYHYEQLKQDDLPPDIYYLGKTLGCTDGTGKEVRFSFTATLAADDNYMAEESIINLGYSKDNYRFYGRNGILWEDVIDIVNYGNSIAFHNVNTKEIHNIDSIQKHYLIGQDSIQKRLSGRKCKTLSEPDGNIDYTTAAINLDDIKTITAERGEKVYPFHNLTNLENHTLNRVFHDSPDDFKQVIEQERSIPTVDRCAINIGVHSTDAFWTDFLLWLNDTYGKDGEDCIWMPSQEEYYEYNYYRMHGKIEKSADGSTLKLIINLPSQEYFYYPSVTINLKGLKKEDIKSIESNSAVTGLSYGNYQDGVMLNIDCRRFLVEHATHFVEQYEKDKTNQSNKADALYFVNMLKESSKKAELLNRIK | not soluble
5 | MSLKIAAFGEVMLRFTPPEYLMLEQTEQLRMNFVGTGVNLLANLAHFQLETALITKLPANRLGEAGKAALRKLGISDQWVGEKGDHIGSFFAEMGYGIRPTQVTYQNRHQSAFGISEAKDYDFEAFLAEVDMVHICGISLSLTEKTRDAALILAQKAHAYQKKVCFDFNYRPSLNTANSALFMRQQYERILPYCDIVFGSRRDLVELLGFIPREDLEGEAQETELIQRFMSQYNLEWFAGTTRSHSQNQNYLSGYLYTQNEYQQSEKRPLLNLDRIGAGDAYAAGILYGYSQNWSLEKAVTFATVNGVLAHTIQGDIPLTTVKQVNHVLEHPNIDLIREGHHHHHH | soluble
6 | MGSDKIHHHHHHMNTLVLPKTQHLVVFQEVIRSGSIGSAAKSLGLTQPAVSKIISDVEAYFGVELIVRKNTGVTLTEAGQVLLSWSESITREMKNMINEMNSMTCNTVVDVSFGFPSLIGFTFMSDMIHKFKEVFPKAQVSMYEAQLSSFLPALRDGRLDFAIGTLSNEMQLQDLHVEPLFESEFVLVASKSRTCTGTITLESLKDEQWVLPQTNMGYYSELLTTLQRNGISIENIVKTDSVVTIYNLVLNADFLTVIPCDMTTPFGSNQFITIPIQDTLPVARYAAVWSKNYRIKKAASVLVELAKQYSSYNGCRRRQLIEIE | not soluble
7 | MSMYTTAQLLAANEKKFKFDPLFLRLFFRESYPFTTEKVYLSQIPGLVNMALYVSPIVSGEVIRSRGGSTSEFTPGYVKPKHEVNPQMTLRRLPDEDPQNLADPAYRRRRIIMQNMRDEELAIAQVEEMQAVSAVLKGKYTMTGEAFDPVEVDMGRSAANNITQSGGTEWSKRDKSTYDPTDDIEAYALNASGVVNIIVFDPKGWALFRSFKAVKEKLDTRRGSNSELETAVKDLGEAVSYKGMYGDTAIVVYSGQYVENDVKKNFLPDNTMVLGNTQARGLRTYGCIQDADAQREGINASARYPKNWVTTGDPAREFTMIQSAPLMLLADPDAFVSVQLA | not soluble
8 | MGSDKIHHHHHHMVAIKNFSIKIKDKEPVFTLGEKLTQEQLDFFETHGYIHFKNFLNPETVPAVIKALEDVQEQWIAENREKVNGVPIKYGVDLDGKKIVQRFAFASLFSNVLHELLKDPRLKALYPLLQAKDERIGEFEKDGLVVNHYINSDASSFTKMGWHTDCLRDVFYGKKIMPMLNVGIHLDNYDPKNGGLRIIPGTHKQDLLNLLFRKKYYVSHKPDPDEIGFNITAGDLTVHDGRSWHRVERSPITGEASRRRVMYIPFIGGEYQPKDENSSTQLYQRLSKFVR | not soluble
9 | MTFLDRTPDIILTMNEEGVIVSQNETARRVFGDVGGKIYSEICKDDTCSVGDRYYSMVAIKGFRRTIVVGRDITERIRLEKELEDRERKFKALAELSPAGILVHHQGTILFVNEALCQIHGYTREELLNRKVWDLIHPDYHDLARAMMQKRLEGEKPVYELKTIRKDGSERWVLVAGGAIDWDGKKSVMAFAIDITDKKMIEQRLAEREELFRSIFNISPAGLYILVGGKFKLVNPAFERITGYSAEELVGMKSLEIVAEEDREFVRRKAIEMLKGRETEPYKYRVVRKDGKIRWVYENVASIAYEGERAALGSVIDITEIEEERKRLEELTSMLELINKTLRHDVLNALTSAMALLEMGIEESNKDYLNKALTSINRAVSIVRNMRAFEDAVKSGELRCIDVGELVSEVAKSFENVSVKGEGRALADEGLRSVVENIVNNAFIHSGTDRVEITVSEGKEWCEIRIADFGIGIPDEIKQRIFEEGFKYGKAAQTGLGLFIARKIVERYAGEIWVEDNEPKGSVFVIRLKKC | not soluble
10 | YHHSVVVGNLSEAACESIGENGLLARVGSYYHDLGKTRRPHFFIENQMKMENPHDRISPQLSATIIISHPYDGAKMLKEYKMPKEIIDIAEQHHGTSLLKYFYHKAQQESDQEVEETSFRYPGPKAQSKVAAIVGIADSVEA | soluble
11 | MEVMAQIVLAPHLAGRFDDPDHIRRCIQLYSYRIPANYRRLFDFLFNTEQDFPDCDEFSFFVSVRLNIPTKILNFSEEFGKCVSLHILRKLDVIPPFSKRSQLIILKEVESLKKSIRLCDHMEQCVVAAFQQLLEDEEACIQSVHRLMPVITRSLSQSALEDLINPMIELIQCETSVKLLDRRFLMHVSICYGTHTFLDLFLPPIVEACASMNCDRSVVAKESIMWLAKRYGPVICAKFISSNVLRIMASCYEAFEMVGLEQQPKAVFNVVLQGDETCSRIESLLSEIVLTYSVTFITVQFLPFCVDLIEQFHKRSSVQLEPGLVSVFRIVELSIRSMSDHQLMNYLEEFIIQKVCQLLHSITQKIGTENTRIYANQPFKLMFSTFSEIYETDEELRINLRKRPSENTLFEVPLWMVEDVVDKFAKEWGVPFLSSFCDDPAFLIPFVSNSSSSSSPPASIAHSPPSAFTAYSLGGMSSGNRLFSLSASSPVNSVNSLGGLSFCDSGSLSAVWCARVSAAVCGVDNYRFDHLSLCNYTGHQEKIRKLAAISNENSFVSASSDKTVKLWSIKPELDEIGCQWTYQKHTRPVHDITILADNSIASTDGVLHVWDPFRTTLLAQMEWDSKEGSGGNIMRVENVDRHILSAICSLHSTVKLFDSRVGGWTCELKVSPGPGLTRAITVRDKGNKMAVALSNGTLAILDARNGKINALAQTNSTHTVSVNWLSDTRLLVCDADECGIFLETNPRAHIVRKLQDPSIPKQW | not soluble
12 | MEKDAQAGEPEEEEVDDELSSTDLYEDSMAEVTLNETRGGHDSDPFDRSGEYDEDVDLAAPPPITPDIPEIPADVLISLKNRAEGTAIDLKNLKNPFDDSQKVDESEVEAPLK | soluble
13 | SLEGQLEAGEPKEGTHPEDPCPGAGAAMEKTPAAAEVPREDGNAEEMPSLQQQITSLHQELGRQQSLWADIHRKLQSHMDALRKQNRELREELRGLQRQQWEAGKKPAASPHAGRESHTLALEPAFGKISPLSADEETTPKYAGRKSQSATLLGQRWSSNHLAPPKPMSLKTERINSGKTPPQEDREKSPPGRRQDRSPAPTGRPTPGAERREVSEDGKIMHPSSRSPQNSGGRKSPVQASQATTLQEQTAAARGADRSSSVLGSSEGGFLSRVQADEFASSSPDSAERQNLPVNPPSSLEIAQAMDTKMKKEEVQEEKRHPKGKADDCRRSGFPSEFPGALHAAPSRQDMGP | soluble
14 | METPSSAKRVTRSQAISAINDSDSDFKVPFSSSNKTEDSSIDQRKEEDRSALIDITNDSPIVGLTMQTPPSGFMVKRKSSRIKITPGSGEALLRGQVKTLLHKVEEGTELIHSIKTRPFIHLVTSPMRLLAPTPANTPQFPNFSDDDVKIKIASPIVAGNLRTSQISEEKEDKRMKKMNVETNQAEFAGKHNRFLYNSEDDEIVEAKEVLHLKGIPTPRGKHFRFATQEE | soluble
15 | MPEGPAAVLAPRRKTRQLQVGTVGVGSDFPVSVQSMCTTKTHDVNATLQQIAELTASGCDIVRVACPRQEDADALATIAKKSQIPVIADIHFQPRYIFAAIEAGCAAVRVNPGNIKEFDGRVKEVAKAAGDAGIPIRIGVNAGSLDPRLMQKYGKATPEALVESALWEAGLFEEHGFGDIKISVKHNDPVIMVEAYRQLAAQCNYPLHLGVTEAGPAFQGTIKSAVAFGALLADGIGDTIRVSLSAPPAEEIKVGTQILQSLNLRPRKLEIVSCPSCGRAQVDVYTLADEVTAGLEGMEIPLRVAVMGCVVNGPGEAREADLGVASGNGKGQIFVKGKVIKTVPEAQIVETLIEEAMRIAEEMEGDATSGSPVVTVS | not soluble
16 | MLAKSIPLGIYEKALPAGECWLERLKLAKALGFDFVEMSLDETDARLARLDWSPEQRLALVKAVAETGVRVPSMCLSAHRRFPLGSEDDAVRHQGLEIMRKAIQLAQDVGIRVIQLAGYDVYYQQANDETRRRFRDGLKQSVEMASRAQVTLAMEIMDYPLMNSISKALGYAHYLNNPWFQLYPDIGNLSAWDNDVQMELKAGSGHIVAVHVKDTKPGVFKNVPFGEGVVDFERCFETLKQTGYCGPYLIEMWSETSADPLAEVAKARDWVKARMARAGLMEAA | not soluble
17 | MAEVVNISKSASFSKQEKEFSDFQKSKESNEKILNKESNRFTLHPIMYPEVWNFYKKAEASFWTAEEIDLSSDLKDFEKLNVNEKHFIKHVLAFFAASDGIVLENLASKFLREVEIIEAKKFYSFQIAVENIHSETYSLLIDNYIKDEKERLNLFHAIENIPAIKNKALWAAKWINDTNSFAERIVANACVEGILFSGSFCAIFWFKKQNKLHGLTFSNELISRDEGLHTDFNCLIYSLLENKLPENVVQNIVKEAVEVERSFICESLPCDLIGMNSRLMSQYIEFVADRLLECLGCSKVFHSKNPFNWMDLISLQGKTNFFEKRVADYQKSGVMAQRKEQVFSLNTDF | soluble
18 | MLIRKITRKNPSPDVLEEAISVMEGGGIVIYPTDTIYGLGVNALDEDAVRRLFRVKGRSPHKPVSICVSCVDEIPRFSRPSGDAMELMERILPGPYTVVLERNELIPDVITGGSSRVGIRVPDDEICRRIAARFPVTATSANISGKPPSPRLEEIVRDLDAVDLVLDAGDCLDMEPSTVIDLTVNPPRVLRRGKGPLDPVLLRGAGDV | soluble
19 | MTKEEIIKPENLVYKKPTLMNDNPMHYCPGCSHGVVHKLIAEVIEEMGMEDKAIGVSPVGCAVFAYNYLDIDWQEAAHGRAPAVATAIKRLWPGRLVFTYQGDGDLACIGTAETIHALNRGENITIIFINNAIYGMTGGQMAPTTLVGMKTATCPYGRDVAIHGYPLKMTEIAATLEGTAYVTRQAVHTVPAIRKAKKAIRKAFENSMNGKGSNLVEIVSTCNSGWKMTPQASNDWMVEHMFPFYPLGDLKDKE | not soluble
20 | MYIRINNGVTECNIRLVGTAHVSDDSITEVKNAIVETDPELVAIELDKDRFVAMFQNKKNDVDLKSVIKQGKVGIYIVHSILANFQKNIGEQFGIKPGSEMKKATDLAIQYQKPISLIDRPINITLSRTVNKMTFKEKFDFVIGLLTEQNVELDEKAINEMVSNADDLILLLKDISPSIYETLVNERDKYMAKNLFEASKGKENIVAVVGAGHVPGIKNYLKKMESGEDIDLKSLM | not soluble
